The values below come from patent US20240410826A1.

Experiment [1] addresses Human colostrum IgA (Catalog No. 16-13-090701, Athens Research and Technology) (human). The experiment in a line: single-objective ESM digital counting; 5 nM IgA flowed over anti-IgA fixed on ITO; KD=koff/kon.
For experiment [2] the target is unchanged. The experiment is described as follows: single-objective ESM digital counting; 5 nM IgA flowed over anti-IgA fixed on ITO; first-order fit.
Experiment [3] shares this target. The experiment is described as follows: ESM digital single-molecule counting; 20 nM IgA flowed over anti-IgA fixed on cover glass; KD=koff/kon.
For experiment [4] the target is unchanged. The experiment in a line: ESM digital single-molecule counting; 20 nM IgA flowed over anti-IgA fixed on cover glass; first-order fit.
For experiment [5] the target is unchanged. The experiment is described as follows: ESM real-time size (DH) of PEG-tethered single IgA on ITO after adding anti-IgA; mean of ~60 binding events.
For experiment [6] the target is unchanged. The experiment is described as follows: ESM real-time charge (q) of PEG-tethered single IgA on ITO after adding anti-IgA; mean of ~60 binding events.
Experiment [7] shares this target. The experiment in a line: ESM counting of landing events of IgA monomer and complex on BSA-coated ITO; binding in free solution; fit of monomer ratio decay.
For experiment [8] the target is unchanged. The experiment in a line: ESM parallel kinetics; binding in free solution in a mixture of anti-IgA, IgA and IgM, 2.5 nM each; fit of IgA monomer ratio decay.
Experiment [9] shares this target. The experiment is described as follows: ESM end-point size histogram of IgA/BSA mixture tethered on ITO, before (12.1±1.2 nm) and after (13.6±2.1 nm) adding anti-IgA; ~420 molecules.
Experiment [10] shares this target. The experiment is described as follows: ESM counting of landing events on BSA-coated ITO; 5 nM anti-IgA mixed with 5 nM IgA in free solution; fraction of IgA still free in the first minute.
Experiment [11] has the same target. The experiment is described as follows: ESM counting of landing events on BSA-coated ITO; 5 nM anti-IgA mixed with 5 nM IgA in free solution; fraction of IgA still free in the third minute.

For “Goat anti-human IgA (IgG, Catalog No. STAR141, BIO-RAD) (antibody)”, the dissociation constant Kd in experiment [1] amounted to 870 pM; in experiment [3] it was 873 pM; in experiment [7], 839 pM; in [8], 1840 pM. The koff in [2] was 0.0002 s⁻¹; in experiment [4], 9.6e-05 s⁻¹; in experiment [7], 0.00173 s⁻¹; in experiment [8] it was 0.00148 s⁻¹. The kon in [2] turned out to be 230000 M⁻¹ s⁻¹; in experiment [4] it was 110000 M⁻¹ s⁻¹; in [7] it was 2.18e+06 M⁻¹ s⁻¹; in experiment [8] it was 881000 M⁻¹ s⁻¹. For the same substance, the average size change on antibody binding in experiment [5] turned out to be 1.7 nm. In [6], the average charge change on antibody binding amounted to 1.8 e. For the same substance, in [9], the shift of the IgA size peak after antibody binding was found to be 1.5 nm. In addition, the IgA monomer ratio (first minute) in experiment [10] was found to be 1. For the same substance, the IgA monomer ratio (third minute) in [11] is 0.5.

Usually Kd stands for the constant that tells how readily two partners part at equilibrium. The term koff denotes the first-order rate constant of dissociation. Broadly, the kon is the rate constant with which the complex forms.
